According to IntAct's records for PubMed 7536190:

B1: Tumor necrosis factor receptor superfamily member 6 (Mus musculus), P25446 (parent)
chain: MLWIWAVLPLVLAGSQLRVHTQGTNSISESLKLRRRVRETDKNCSEGLYQGGPFCCQPCQPGKKKVEDCKMNGGTPTCAPCTEGKEYMDKNHYADKCRRCTLCDEEHGLEVETNCTLTQNTKCKCKPDFYCDSPGCEHCVRCASCEHGTLEPCTATSNTNCRKQSPRNRLWLLTILVLLIPLVFIYRKYRKRKCWKRRQDDPESRTSSRETIPMNASNLSLSKYIPRIAEDMTIQEAKKFARENNIKEGKIDEIMHDSIQDTAEQKVQLLLCWYQSHGKSDAYQDLIKGLKKAECRRTLDKFQDMVQKDLGKSTPDTGNENEGQCLE

Variants of: B1
Details: with fadd_human FADD

Row | effect of a mutation on the interaction | Variant
1 | decreasing interaction | MLWIWAVLPLVLAGSQLRVHTQGTNSISESLKLRRRVRETDKNCSEGLYQGGPFCCQPCQPGKKKVEDCKMNGGTPTCAPCTEGKEYMDKNHYADKCRRCTLCDEEHGLEVETNCTLTQNTKCKCKPDFYCDSPGCEHCVRCASCEHGTLEPCTATSNTNCRKQSPRNRLWLLTILVLLIPLVFIYRKYRKRKCWKRRQDDPESRTSSRETIPMNASNLSLSKYDPRIAEDMTIQEAKKFARENNIKEGKIDEIMHDSIQDTAEQKVQLLLCWYQSHGKSDAYQDLIKGLKKAECRRTLDKFQDMVQKDLGKSTPDTGNENEGQCLE [I225D]

Variants of: B1
Details: with tnr6_human FAS

Row | effect of a mutation on the interaction | Variant
2 | decreasing interaction | MLWIWAVLPLVLAGSQLRVHTQGTNSISESLKLRRRVRETDKNCSEGLYQGGPFCCQPCQPGKKKVEDCKMNGGTPTCAPCTEGKEYMDKNHYADKCRRCTLCDEEHGLEVETNCTLTQNTKCKCKPDFYCDSPGCEHCVRCASCEHGTLEPCTATSNTNCRKQSPRNRLWLLTILVLLIPLVFIYRKYRKRKCWKRRQDDPESRTSSRETIPMNASNLSLSKYDPRIAEDMTIQEAKKFARENNIKEGKIDEIMHDSIQDTAEQKVQLLLCWYQSHGKSDAYQDLIKGLKKAECRRTLDKFQDMVQKDLGKSTPDTGNENEGQCLE [I225D]
